Literature values as cited in patent US5223421A, “Identification of methionine Nα-acetyltransferase” (The General Hospital Corporation, priority 1990, dated 1993).

Biological target: T1, yeast methionine acetyltransferase (M-N^α AT) (Saccharomyces cerevisiae, UniProt Q06504)
T1 construct: a crude yeast homogenate from the aaa1 mutant strain; endogenous in cells; host or cells: Saccharomyces cerevisiae strain T3A-a (aaa1), crude lysate
T1 sequence (Q06504 1-195): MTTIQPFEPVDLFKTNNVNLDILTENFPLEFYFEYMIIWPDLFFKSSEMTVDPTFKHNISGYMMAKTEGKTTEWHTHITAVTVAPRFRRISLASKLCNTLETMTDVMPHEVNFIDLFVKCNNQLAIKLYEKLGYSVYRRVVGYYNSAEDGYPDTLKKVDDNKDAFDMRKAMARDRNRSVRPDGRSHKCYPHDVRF
T1 sequence (Q12387 2-796 partner limits assumed): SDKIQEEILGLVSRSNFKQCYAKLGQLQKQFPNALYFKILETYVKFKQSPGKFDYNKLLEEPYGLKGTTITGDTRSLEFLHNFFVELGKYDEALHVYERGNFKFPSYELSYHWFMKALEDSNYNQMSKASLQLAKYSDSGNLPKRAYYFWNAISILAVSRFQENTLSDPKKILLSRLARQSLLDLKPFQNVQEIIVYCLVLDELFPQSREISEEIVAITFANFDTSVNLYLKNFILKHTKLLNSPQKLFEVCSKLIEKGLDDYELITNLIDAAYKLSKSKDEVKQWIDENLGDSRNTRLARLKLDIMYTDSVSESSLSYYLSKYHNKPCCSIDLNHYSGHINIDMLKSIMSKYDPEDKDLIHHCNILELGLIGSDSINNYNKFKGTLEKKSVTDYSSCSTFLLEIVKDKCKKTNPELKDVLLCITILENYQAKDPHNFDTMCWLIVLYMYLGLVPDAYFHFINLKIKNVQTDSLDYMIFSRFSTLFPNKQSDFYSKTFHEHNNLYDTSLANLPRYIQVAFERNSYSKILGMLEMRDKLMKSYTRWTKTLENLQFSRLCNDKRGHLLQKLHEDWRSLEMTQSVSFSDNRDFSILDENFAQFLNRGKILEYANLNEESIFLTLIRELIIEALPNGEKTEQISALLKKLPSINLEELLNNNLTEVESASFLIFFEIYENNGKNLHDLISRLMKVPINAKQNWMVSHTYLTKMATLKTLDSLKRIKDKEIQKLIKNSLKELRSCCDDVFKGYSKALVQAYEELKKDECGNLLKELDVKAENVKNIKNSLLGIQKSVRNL
Details: Lee et al., J. Biol. Chem. 265:3603-3606 (1990); cited from earlier work

Q: With “24 residue synthetic peptide mimicking the NH2 terminus of yeast actin: 24 residue synthetic peptide mimicking the NH2 terminus of yeast actin (MDSEVAALVIDNGSGMCKAGFAGD; UniProt P60010 1-24, looked up, fragment)” as the substance, how does the “N^α -acetylation by yeast M-N^α AT” value read?
A: The value was “will acetylate”.
